Measurements published in US20230242640A1 (OSE IMMUNOTHERAPEUTICS, published 2023).
Positions count from the first letter of the chain named. In names and notes the source's numbering stands.

Assays:
protein SIRPb-His = target: T1, protein SIRPb-His (human, UniProt Q5TFQ8 30-371); test: ELISA on coated SIRPb-His
T1 construct: The methods give no supplier for SIRPb-His; also called hSIRPb-his
Excerpt: FIG. 2. Binding on SIRPg, SIRPa and SIRPb ELISA assay (protein SIRPa/b/g-His coated and anti-human peroxidase detection). Binding analysis of antibodies A1, A5 and A8, and prior art antibody Kwar23.

[1] = target: T2, recombinant hSIRPg-His (Sino Biologicals reference 11828-H08H) (human, UniProt Q9P1W8 29-360); test: ELISA on coated SIRPg-His
T2 construct: Bought protein; also called protein SIRPg-His; SIRP-gamma
Method: For activity ELISA assay, recombinant hSIRPg (Sino Biologicals, Beijing, China; reference 11828-H08H) or hSIRPa (Sino Biologicals, Beijing, China; reference 11612-H08H) was immobilized on plastic at 1 µg/ml (hSIRPg) or 0.5 µg/ml (hSIRPa) in carbonate buffer (pH9.2) and purified antibody were added to measure binding.

T1 sequence (Q5TFQ8 30-371): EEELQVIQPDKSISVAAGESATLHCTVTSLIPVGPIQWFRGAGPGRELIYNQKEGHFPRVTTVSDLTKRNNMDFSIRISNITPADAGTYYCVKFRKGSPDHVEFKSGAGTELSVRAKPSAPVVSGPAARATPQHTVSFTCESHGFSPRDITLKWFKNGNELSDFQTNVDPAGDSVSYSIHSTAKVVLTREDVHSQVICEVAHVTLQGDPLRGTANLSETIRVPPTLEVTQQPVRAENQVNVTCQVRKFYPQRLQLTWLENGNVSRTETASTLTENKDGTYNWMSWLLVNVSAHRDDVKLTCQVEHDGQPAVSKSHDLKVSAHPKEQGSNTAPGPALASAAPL
T2 sequence (Q9P1W8 29-360): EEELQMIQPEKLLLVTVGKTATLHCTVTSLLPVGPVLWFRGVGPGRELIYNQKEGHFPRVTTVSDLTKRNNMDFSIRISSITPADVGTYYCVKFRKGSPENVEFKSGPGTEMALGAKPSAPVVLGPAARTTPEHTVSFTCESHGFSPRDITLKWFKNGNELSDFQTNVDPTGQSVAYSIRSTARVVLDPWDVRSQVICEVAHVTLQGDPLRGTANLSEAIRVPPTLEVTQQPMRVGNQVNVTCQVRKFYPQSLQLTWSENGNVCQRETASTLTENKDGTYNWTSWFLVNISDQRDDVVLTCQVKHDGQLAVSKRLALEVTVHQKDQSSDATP

B1: anti-SIRPg antibody A1 (antibody, human IgG4 S228P, kappa, V domains shown)
VH: EVQLVESGGGVVRPGGSLRLSCAASGFTFDDYGMSWVRQAPGKGLEWVSGINWNGGSTGYADSVKGRFTISRDNAKNSLYLQMNSLRAEDTAVYYCARWIAKVWGQGTLVTVSR
VL: SSELTQDPAVSVALGQTVRITCQGDSLRSYYASWYQQKPGQAPVLVIYGKNNRPSGIPDRFSGSSSGNTASLTITGAQAEDEADYYCNSRDSSGNHVVFGGGTKLTVLR
notes: human IgG4 S228P, kappa constant; also called VHA1-hFcG4 + VL-CLkappa
Q: Does B1 bind (protein SIRPb-His)?
A: no binding

Q: Does B1 bind [1]?
A: binds

B2: anti-SIRPg antibody A8 (antibody, human IgG4 S228P, kappa, V domains shown)
VH: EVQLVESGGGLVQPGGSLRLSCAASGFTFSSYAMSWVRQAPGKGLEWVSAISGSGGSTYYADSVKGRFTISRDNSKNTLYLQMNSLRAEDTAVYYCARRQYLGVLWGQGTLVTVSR
VL: B1 VL
notes: human IgG4 S228P, kappa constant; also called VHA8-hFcG4 + VL-CLkappa
Q: Does B2 bind (protein SIRPb-His)?
A: no binding

Q: Does B2 bind [1]?
A: binds

B3: anti-SIRPg antibody A5 (antibody, human IgG4 S228P, kappa, V domains shown)
VH: B1 VH with W99Q, I100M, A101V, V103L
VL: B1 VL
notes: human IgG4 S228P, kappa constant; also called VHA5-hFcG4 + VL-CLkappa
Q: Does B3 bind (protein SIRPb-His)?
A: no binding

Q: Does B3 bind [1]?
A: binds
